B1: AOS promoter G-box probe (dsDNA)
DNA 1: TTATGGCTGTAAAAACGTGCGAATTCATGGAG
DNA 2: CTCCATGAATTCGCACGTTTTTACAGCCATAA
B2: GoPGF promoter G-box probe (dsDNA)
DNA 1: AACAGGAGATTTCCACGTGATAATGATGTCAA
DNA 2: TTGACATCATTATCACGTGGAAATCTCCTGTT

Molecular target: T1, JAVL (JAVL_A) (UniProt A0A1U8LLK1 1-170)
T1 sequence: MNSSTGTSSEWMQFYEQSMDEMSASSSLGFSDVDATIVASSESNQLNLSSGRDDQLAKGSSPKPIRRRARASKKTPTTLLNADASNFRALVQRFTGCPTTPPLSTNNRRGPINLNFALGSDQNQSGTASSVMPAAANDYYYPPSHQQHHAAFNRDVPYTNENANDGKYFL
Experiment: EMSA; EMSA: 30 °C for 30 min, then 5% native PAGE in Tris/borate/EDTA, 10 V/cm, 4 °C; 10x and 100x cold competitor; binding buffer, salt and pH not stated
Conditions: protein: recombinant; tags: His (pET32a); label: Cy5; blunt (duplex implied, only one strand printed)

Binder	binding result
B1	binds
B2	binds

Reference: publication PMC11321651, “Regulation of Glandular Size and Phytoalexin Biosynthesis by a Negative Feedback Loop in Cotton”
